This note sets out measurements from US20030059461A1.

The target in assay [1] is KDR/flk-1 receptor on 293/KDR or PAE/KDR cells (UniProt P35968). Description: cell-based or functional assay.
Assay [2] deals with S-peptide fragment of bovine pancreatic ribonuclease A (bovine). The assay is described as follows: cell-based or functional assay.

Sequence of KDR/flk-1 receptor on 293/KDR or PAE/KDR cells (P35968 20-1356 limits assumed): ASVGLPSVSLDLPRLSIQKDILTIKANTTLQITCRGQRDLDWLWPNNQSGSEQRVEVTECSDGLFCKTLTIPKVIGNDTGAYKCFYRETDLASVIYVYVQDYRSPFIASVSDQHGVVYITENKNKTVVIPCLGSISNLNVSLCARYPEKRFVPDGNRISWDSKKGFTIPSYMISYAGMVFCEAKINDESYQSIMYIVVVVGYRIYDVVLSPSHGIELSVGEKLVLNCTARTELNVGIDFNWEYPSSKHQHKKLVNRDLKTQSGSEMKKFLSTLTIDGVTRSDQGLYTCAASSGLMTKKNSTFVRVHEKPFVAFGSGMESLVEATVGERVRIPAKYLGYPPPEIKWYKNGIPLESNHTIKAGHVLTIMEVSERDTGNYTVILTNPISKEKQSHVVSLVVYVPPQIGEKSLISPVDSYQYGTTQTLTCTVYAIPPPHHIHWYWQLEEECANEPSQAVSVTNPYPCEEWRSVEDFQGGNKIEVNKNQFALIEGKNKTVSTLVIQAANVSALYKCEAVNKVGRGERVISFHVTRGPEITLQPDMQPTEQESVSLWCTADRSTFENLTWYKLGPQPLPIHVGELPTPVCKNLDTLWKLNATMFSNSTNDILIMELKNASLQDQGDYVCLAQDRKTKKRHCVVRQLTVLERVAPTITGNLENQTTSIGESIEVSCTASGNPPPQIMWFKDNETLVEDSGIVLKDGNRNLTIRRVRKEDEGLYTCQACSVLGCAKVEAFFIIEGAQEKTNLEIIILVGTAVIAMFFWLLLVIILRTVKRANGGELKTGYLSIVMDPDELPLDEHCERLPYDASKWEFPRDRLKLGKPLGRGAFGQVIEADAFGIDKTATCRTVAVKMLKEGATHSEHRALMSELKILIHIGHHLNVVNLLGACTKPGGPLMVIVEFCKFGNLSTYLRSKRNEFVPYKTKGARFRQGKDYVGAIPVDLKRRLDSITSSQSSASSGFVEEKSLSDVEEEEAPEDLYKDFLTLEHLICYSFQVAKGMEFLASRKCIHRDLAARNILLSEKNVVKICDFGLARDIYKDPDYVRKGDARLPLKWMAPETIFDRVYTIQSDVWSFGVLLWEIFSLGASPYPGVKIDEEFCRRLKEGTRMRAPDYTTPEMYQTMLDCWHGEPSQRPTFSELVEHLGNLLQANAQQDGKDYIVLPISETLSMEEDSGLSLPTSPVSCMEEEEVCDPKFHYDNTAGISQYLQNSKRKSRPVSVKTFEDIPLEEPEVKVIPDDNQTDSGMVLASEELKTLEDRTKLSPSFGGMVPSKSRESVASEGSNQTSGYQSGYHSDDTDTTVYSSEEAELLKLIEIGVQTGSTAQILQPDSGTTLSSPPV
Sequence of MBS-modified S-protein, 10-fold molar excess of sulfo-MBS (P61823 47-150): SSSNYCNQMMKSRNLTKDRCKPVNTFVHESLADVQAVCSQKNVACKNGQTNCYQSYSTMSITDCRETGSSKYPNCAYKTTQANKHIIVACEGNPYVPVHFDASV
Sequence of S-protein fragment of bovine ribonuclease (Sigma) (P61823 47-150): as above
Sequence of MBS-modified S-protein, 20-fold molar excess of sulfo-MBS (P61823 47-150): as above
Sequence of MBS-modified S-protein, 40-fold molar excess of sulfo-MBS (P61823 47-150): as above
Sequence of MBS-modified S-protein, 2-fold molar excess of sulfo-MBS (P61823 47-150): as above
Sequence of Lip(Dox)-SP-FVEGF121 complex (P15692 other isoform, or with tags, fused parts or gaps): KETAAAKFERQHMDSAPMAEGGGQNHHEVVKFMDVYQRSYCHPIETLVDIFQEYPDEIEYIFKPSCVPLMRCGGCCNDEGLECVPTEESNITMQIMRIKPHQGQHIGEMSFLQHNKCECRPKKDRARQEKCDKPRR
Sequence of Lip(Dox)-SP-FVEGF121 complex (P61823 47-150): as the sequence (P61823 47-150) above

Regarding “Lip(Dox)-SP-FVEGF121 complex (from UniProt P15692 27-147; P61823 47-150)”, the IC50 of growth inhibition of 293/KDR cells in assay [1] was determined as 5 nM.
Turning to “MBS-modified S-protein, 2-fold molar excess of sulfo-MBS (from UniProt P61823 47-150)”, in assay [2], the Ribonuclease Activity (%), S-tag Rapid Assay Kit; SulphoMBS molar excess: 2 came out at 57%.
The substance “MBS-modified S-protein, 10-fold molar excess of sulfo-MBS (from UniProt P61823 47-150)” showed a Ribonuclease Activity (%), S-tag Rapid Assay Kit; SulphoMBS molar excess: 10 in assay [2] of 38%.
Substance “MBS-modified S-protein, 20-fold molar excess of sulfo-MBS (from UniProt P61823 47-150)” displayed a Ribonuclease Activity (%), S-tag Rapid Assay Kit; SulphoMBS molar excess: 20 in assay [2] of 36%.
On to “MBS-modified S-protein, 40-fold molar excess of sulfo-MBS (from UniProt P61823 47-150)”, for which the Ribonuclease Activity (%), S-tag Rapid Assay Kit; SulphoMBS molar excess: 40 in assay [2] stood at 25%.
In assay [2], “S-protein fragment of bovine ribonuclease (Sigma) (from UniProt P61823 47-150)” displayed a Ribonuclease Activity (%), S-tag Rapid Assay Kit; SulphoMBS molar excess: none of 100%.
